Patent publication EP4681731A1 (Bio-Thera Solutions, Ltd., dated 2026)

Experiments:
[1] = molecular target: T1, human OX40 on PG-Jurkat-hOX40-NF-kB cells (human, UniProt P43489 29-277); assay: cell-based or functional assay
T1 sequence (looked up): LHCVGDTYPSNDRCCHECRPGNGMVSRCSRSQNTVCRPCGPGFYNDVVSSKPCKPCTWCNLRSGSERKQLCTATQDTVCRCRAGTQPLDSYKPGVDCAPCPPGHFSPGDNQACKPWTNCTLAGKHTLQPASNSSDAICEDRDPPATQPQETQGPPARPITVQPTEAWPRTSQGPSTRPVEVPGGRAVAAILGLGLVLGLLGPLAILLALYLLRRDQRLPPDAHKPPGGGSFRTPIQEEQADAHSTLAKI

[2] = molecular target: T1, human OX40 on PG-Jurkat-hOX40-NF-kB …; assay: flow cytometry competition against OX40L-mFc on PG-Jurkat-OX40-NF-kB cells; reference antibody KHK4083
[3] = molecular target: T1, human OX40 on PG-Jurkat-hOX40-NF-kB …; assay: flow cytometry competition: antibody titrated against OX40L-mFc (1.5 ug/mL) on PG-Jurkat-OX40-NF-kB cells, anti-mFc APC detection

IC50 of blocking OX40L-mFc-induced NF-kB luciferase reporter signal (RLU) in PG-Jurkat-OX40-NF-kB cells [1]: 0.095 nM
fold lower IC50 than antibody KHK4083 in the NF-kB luciferase reporter assay [1]: 4.8 fold
fold lower IC50 than antibody KHK4083 [2]: 2.8 fold
IC50 [3]: 0.85 nM
B1: antibody M-KF (antibody, human IgG1, kappa, V domains shown)
VH: QVQLVESGGGVVQPGESLRLSCAASGFTFSSYGMHWVRQAPGKGLEWVAVIWEDGSNQYYADSVKGRFTISRDNSKNTLYLQMNSLRAEDTAVYYCAKDNQDTSPDVGIDYWGQGTLVTVSS
VL: DIQMTQSPSSLSASVGDRVTITCRASQNISPFLNWYQQKPGKAPKLLIYAAVGLQSGVPSRFSGSGSGTDFTLTISSLQPEDFATYYCQQYTDYPLTFGGGTKVEIKR
notes: Expressed in CHO-BAT-KF cells (alpha-(1,6)-fucosyltransferase knocked out); also called anti-OX40 antibody
